In one experiment the target is T1, P5SC2.
T1 chain: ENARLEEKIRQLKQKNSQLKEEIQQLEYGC
Description: two-hybrid library CC1.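 Note: natural log of median RNA to DNA barcode read ratio; higher means stronger binding.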 As to conditions: mean of both orientations.

In the next experiment the target is T2, P5SC1.
T2 chain: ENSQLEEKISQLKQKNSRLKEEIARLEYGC
Description: two-hybrid library CC1.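 Note: natural log of median RNA to DNA barcode read ratio; higher means stronger binding.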

The next experiment addresses T3, P6SC2.
T3 chain: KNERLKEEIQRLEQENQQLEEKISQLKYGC
As to the kind of experiment: two-hybrid library CC1.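 Note: natural log of median RNA to DNA barcode read ratio; higher means stronger binding.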 To be noted: mean of both orientations.

For a further experiment, the target named is T4, P6.
T4 chain: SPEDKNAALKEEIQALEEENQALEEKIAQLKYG
As to the kind of experiment: two-hybrid library CC1.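 Note: natural log of median RNA to DNA barcode read ratio; higher means stronger binding.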 As to conditions: mean of both orientations.

For another experiment, the target named is T5, P7mS.
T5 chain: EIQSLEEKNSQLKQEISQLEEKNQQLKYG
Description: two-hybrid library CC1.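 Note: natural log of median RNA to DNA barcode read ratio; higher means stronger binding.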 As to conditions: mean of both orientations.

The next experiment has as its target T6, P6mS.
T6 chain: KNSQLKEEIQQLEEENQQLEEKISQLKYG
Description: two-hybrid library CC1.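 Note: natural log of median RNA to DNA barcode read ratio; higher means stronger binding.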 To be noted: mean of both orientations.

In another experiment the target is T7, P8mS.
T7 chain: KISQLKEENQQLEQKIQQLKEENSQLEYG
As to the kind of experiment: two-hybrid library CC1. As to conditions: mean of both orientations.

Another experiment concerns the target T8, P5mS.
T8 chain: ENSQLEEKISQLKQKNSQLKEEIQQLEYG
As to the kind of experiment: two-hybrid library CC1. To be noted: mean of both orientations.

For the next experiment, the target named is T9, P7.
T9 chain: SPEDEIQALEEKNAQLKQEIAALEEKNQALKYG
Description: two-hybrid library CC1. As to conditions: mean of both orientations.

The next experiment addresses T10, P8.
T10 chain: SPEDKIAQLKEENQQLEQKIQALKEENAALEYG
As to the kind of experiment: two-hybrid library CC1. To be noted: mean of both orientations.

The next experiment deals with T11, P6SC1.
T11 chain: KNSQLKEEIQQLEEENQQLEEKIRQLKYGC
As to the kind of experiment: two-hybrid library CC1. To be noted: mean of both orientations.

In another experiment the target is T12, P9.
T12 chain: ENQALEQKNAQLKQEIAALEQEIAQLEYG
As to the kind of experiment: two-hybrid library CC1. As to conditions: mean of both orientations.

A further experiment concerns the target T13, 4H4001-bH.
T13 chain: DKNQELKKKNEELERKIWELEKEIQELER
As to the kind of experiment: two-hybrid library CCNG1.

The target of another experiment is T14, 4H918-bH.
T14 chain: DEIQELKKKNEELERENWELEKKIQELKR
As to the kind of experiment: two-hybrid library CCNG1.

A further experiment addresses T15, 4H3782-bH.
T15 chain: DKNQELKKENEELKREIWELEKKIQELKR
As to the kind of experiment: two-hybrid library CCNG1.

In the next experiment the target is T16, 4H3855-bH.
T16 chain: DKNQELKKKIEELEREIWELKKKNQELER
Description: two-hybrid library CCNG1.

Another experiment has as its target T17, 4H883-bH.
T17 chain: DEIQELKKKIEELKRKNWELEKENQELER
As to the kind of experiment: two-hybrid library CCNG1.

The target in another experiment is T18, 4H454-bH.
T18 chain: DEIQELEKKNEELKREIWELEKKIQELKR
Description: two-hybrid library CCNG1.

Another experiment addresses T19, 4H568-bH.
T19 chain: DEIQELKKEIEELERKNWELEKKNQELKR
As to the kind of experiment: two-hybrid library CCNG1.

The next experiment has as its target T20, 4H3354-bH.
T20 chain: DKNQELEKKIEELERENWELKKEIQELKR
As to the kind of experiment: two-hybrid library CCNG1.

A further experiment addresses T21, 4H717-bH.
T21 chain: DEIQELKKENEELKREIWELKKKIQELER
Description: two-hybrid library CCNG1.

For a further experiment, the target named is T22, 4H687-bH.
T22 chain: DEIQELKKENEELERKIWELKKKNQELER
As to the kind of experiment: two-hybrid library CCNG1.

A further experiment addresses T23, 4H967-bH.
T23 chain: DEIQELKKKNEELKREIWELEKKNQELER
As to the kind of experiment: two-hybrid library CCNG1.

In a further experiment the target is T24, 4H754-bH.
T24 chain: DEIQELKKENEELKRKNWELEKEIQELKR
Description: two-hybrid library CCNG1.

The target in another experiment is T25, 4H797-bH.
T25 chain: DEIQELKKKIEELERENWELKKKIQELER
As to the kind of experiment: two-hybrid library CCNG1.

The next experiment addresses T26, 4H3427-bH.
T26 chain: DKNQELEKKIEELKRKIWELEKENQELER
As to the kind of experiment: two-hybrid library CCNG1.

In another experiment the target is T27, 4H338-bH.
T27 chain: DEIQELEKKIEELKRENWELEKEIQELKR
Description: two-hybrid library CCNG1.

The next experiment has as its target T28, 4H496-bN.
T28 chain: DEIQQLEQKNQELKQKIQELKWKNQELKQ
Description: two-hybrid library CCNG1.

In another experiment the target is T29, 4H72-bH.
T29 chain: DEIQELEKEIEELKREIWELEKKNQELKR
Description: two-hybrid library CCNG1.

Another experiment concerns the target T30, 4H953-bH.
T30 chain: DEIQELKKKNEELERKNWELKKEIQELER
Description: two-hybrid library CCNG1.

The target in another experiment is T31, 4H908-bH.
T31 chain: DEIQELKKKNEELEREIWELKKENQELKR
Description: two-hybrid library CCNG1.

The target of the next experiment is T32, 4H607-bH.
T32 chain: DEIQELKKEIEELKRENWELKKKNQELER
Description: two-hybrid library CCNG1.

The target of the next experiment is T33, O8.
T33 chain: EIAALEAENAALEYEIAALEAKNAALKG
Description: two-hybrid library CC0. As to conditions: mean of both orientations.

Another experiment addresses T34, O6.
T34 chain: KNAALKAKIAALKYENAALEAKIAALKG
As to the kind of experiment: two-hybrid library CC0. To be noted: mean of both orientations.

The target of a further experiment is T35, O3.
T35 chain: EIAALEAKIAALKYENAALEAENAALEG
Description: two-hybrid library CC0. As to conditions: mean of both orientations.

The target of another experiment is T36, O2.
T36 chain: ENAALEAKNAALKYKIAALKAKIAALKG
Description: two-hybrid library CC0. To be noted: mean of both orientations.

A further experiment deals with T37, O7.
T37 chain: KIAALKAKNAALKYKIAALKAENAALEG
As to the kind of experiment: two-hybrid library CC0. As to conditions: mean of both orientations.

Another experiment addresses T38, O9.
T38 chain: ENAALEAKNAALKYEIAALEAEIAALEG
As to the kind of experiment: two-hybrid library CC0. As to conditions: mean of both orientations.

The next experiment addresses T39, O4.
T39 chain: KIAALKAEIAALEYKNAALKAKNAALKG
As to the kind of experiment: two-hybrid library CC0. To be noted: mean of both orientations.

The target of the next experiment is T40, O5.
T40 chain: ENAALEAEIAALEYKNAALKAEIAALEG
As to the kind of experiment: two-hybrid library CC0. To be noted: mean of both orientations.

Take ENSQLEEKISQLKQKNSRLKEEIARLEYGC [P5SC1]: the interaction score in the experiment with P5SC2 is -2.82; with P5SC1, -2.92; with P6SC2, 0.373; with P6 it was 0.357; in the experiment with P7mS, -2.67; with P6mS, 0.307. Moreover, the interaction score is -2.29 in the experiment with P8mS; -2.78 with P5mS; -2.4 in the experiment with P7; -0.893 in the experiment with P8; 0.372 with P6SC1; -2.33 with P9.
As for DKNQELEKKIEELERENWELKKEIQELKR [4H3354-bH], the interaction score was -0.37 with 4H4001-bH; 0.89 in the experiment with 4H918-bH; -0.062 with 4H3782-bH; -0.383 with 4H3855-bH; -0.344 with 4H883-bH; 0.274 with 4H454-bH. The interaction score with 4H568-bH was -1.08; in the experiment with 4H3354-bH, 1.31; with 4H717-bH, 0.648; with 4H687-bH, -2.6; with 4H967-bH, -0.105; in the experiment with 4H754-bH it was -0.2. Moreover, the interaction score with 4H797-bH was 0.357; with 4H3427-bH it was 0.568; in the experiment with 4H338-bH, 0.838; with 4H496-bN it was 0.755; in the experiment with 4H72-bH it was -1.11; in the experiment with 4H953-bH, -1.49. The interaction score was -1.61 with 4H908-bH and -1.77 with 4H607-bH.
In the case of ENAALEAKNAALKYKIAALKAKIAALKG [O2], the interaction score with O8 was -2.05; with O6, -2.73; with O3, -2.68; with O2, -2.68; with O7, -2.83; with O9 it was -1.04. For the same molecule, the values for the interaction score with O4 and in the experiment with O5 were -2.74 and -2.66, respectively.
